This is an account of results in patent publication US9549967B2, “Regulation of sodium channels by PLUNC proteins” (The University of North Carolina at Chapel Hill, priority 2009, dated 2017).

The target in the assay is T1, α and γ ENaC (Rattus norvegicus, UniProt P37089+P37091).
T1 construct: expressed in transfected cells; host or cells: Xenopus laevis oocytes (cRNA injection)
T1 sequence (P37089 1-698): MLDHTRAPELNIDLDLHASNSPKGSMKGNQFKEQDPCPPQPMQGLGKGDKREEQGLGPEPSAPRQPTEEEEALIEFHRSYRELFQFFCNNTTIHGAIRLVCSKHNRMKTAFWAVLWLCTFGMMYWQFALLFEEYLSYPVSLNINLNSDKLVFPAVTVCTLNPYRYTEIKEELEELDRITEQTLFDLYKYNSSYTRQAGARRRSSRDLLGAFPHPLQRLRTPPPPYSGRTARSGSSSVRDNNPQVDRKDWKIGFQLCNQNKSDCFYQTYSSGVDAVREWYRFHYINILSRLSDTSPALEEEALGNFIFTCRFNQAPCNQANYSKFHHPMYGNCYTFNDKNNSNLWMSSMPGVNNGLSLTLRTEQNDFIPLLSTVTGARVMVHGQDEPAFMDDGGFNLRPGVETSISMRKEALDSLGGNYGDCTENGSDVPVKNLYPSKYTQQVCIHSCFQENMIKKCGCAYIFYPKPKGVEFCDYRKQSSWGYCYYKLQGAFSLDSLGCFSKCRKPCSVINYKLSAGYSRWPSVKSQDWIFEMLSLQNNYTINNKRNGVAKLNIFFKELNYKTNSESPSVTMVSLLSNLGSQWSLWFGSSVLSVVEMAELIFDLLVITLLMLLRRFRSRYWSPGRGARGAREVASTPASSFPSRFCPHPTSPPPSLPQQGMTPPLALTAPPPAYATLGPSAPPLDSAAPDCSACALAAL
T1 sequence (P37090 1-638 partner): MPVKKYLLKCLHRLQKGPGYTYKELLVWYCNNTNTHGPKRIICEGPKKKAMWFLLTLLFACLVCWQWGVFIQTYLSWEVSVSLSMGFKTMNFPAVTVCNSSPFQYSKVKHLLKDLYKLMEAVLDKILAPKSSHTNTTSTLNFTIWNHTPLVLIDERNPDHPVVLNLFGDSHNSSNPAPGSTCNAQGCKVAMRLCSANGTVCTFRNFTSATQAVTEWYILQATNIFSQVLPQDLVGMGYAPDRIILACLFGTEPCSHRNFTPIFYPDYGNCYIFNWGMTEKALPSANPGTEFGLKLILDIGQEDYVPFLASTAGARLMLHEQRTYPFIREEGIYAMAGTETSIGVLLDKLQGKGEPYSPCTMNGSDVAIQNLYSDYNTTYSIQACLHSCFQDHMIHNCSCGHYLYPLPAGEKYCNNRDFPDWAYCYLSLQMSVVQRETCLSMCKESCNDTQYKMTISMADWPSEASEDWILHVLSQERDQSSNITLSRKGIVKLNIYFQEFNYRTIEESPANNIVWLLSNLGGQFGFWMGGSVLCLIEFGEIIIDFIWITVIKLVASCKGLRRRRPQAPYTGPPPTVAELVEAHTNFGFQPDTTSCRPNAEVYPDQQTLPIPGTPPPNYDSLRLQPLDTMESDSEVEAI
T1 sequence (P37091 1-650): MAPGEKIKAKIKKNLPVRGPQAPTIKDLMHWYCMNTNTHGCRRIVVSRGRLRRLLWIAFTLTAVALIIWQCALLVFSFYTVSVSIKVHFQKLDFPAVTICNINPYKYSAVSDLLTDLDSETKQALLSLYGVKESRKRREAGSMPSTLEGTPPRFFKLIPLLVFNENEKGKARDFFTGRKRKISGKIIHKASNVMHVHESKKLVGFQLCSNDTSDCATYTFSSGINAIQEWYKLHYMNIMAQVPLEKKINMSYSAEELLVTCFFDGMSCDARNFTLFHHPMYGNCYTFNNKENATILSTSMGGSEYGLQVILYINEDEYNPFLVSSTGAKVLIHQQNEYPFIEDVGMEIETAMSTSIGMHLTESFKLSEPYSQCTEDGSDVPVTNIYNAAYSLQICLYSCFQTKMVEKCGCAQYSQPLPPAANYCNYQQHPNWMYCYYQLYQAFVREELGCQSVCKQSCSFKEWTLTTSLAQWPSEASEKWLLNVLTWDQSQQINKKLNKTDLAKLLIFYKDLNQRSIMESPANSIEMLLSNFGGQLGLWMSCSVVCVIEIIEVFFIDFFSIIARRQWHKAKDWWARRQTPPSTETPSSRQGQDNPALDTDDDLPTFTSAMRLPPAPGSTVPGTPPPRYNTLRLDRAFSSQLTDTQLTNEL
Briefly: ENaC cleavage by CAP2 in Xenopus oocytes (Western blot, V5 antibody). Format: cell-based. To be noted: αβγENaC, CAP2 and SPLUNC1 co-expressed in oocytes. Here is the method: Western Blotting: Airway surface liquid collected as described above was also placed in protease-inhibitor cocktail (Roche) for Western blotting. The protein concentration was determined using the BCA Assay (Pierce). To obtain SPLUNC1 from Xenopus oocytes, oocytes were lysed in Laemmli buffer or oocyte media was directly sampled and placed in Laemmli buffer. Proteins were resolved using SDS-PAGE and transferred to a Polyvinylidene Fluoride (PVDF) membrane. The membrane was then probed using αSplunc1 or αV5 antibodies and a Donkey anti-Mouse HRP antibody (R&D). The blots were then incubated with ECL reagents (Pierce).
Co-Immunoprecipitation: Xenopus oocytes were injected with either HA-N-Terminus or V5-C-Terminus (HA-NT/V5-CT) tagged subunits in combination with wild type (WT) untagged rat αβγENaC subunits (0.3 ng cRNA each) with or without V5-tagged SPLUNC1 and CAP2 (1 ng cRNA each). After 24 h, 40 eggs per experimental condition were lysed with buffer containing (in mM): 20 Tris, 50 NaCl, 50 NaF, 10 β-glycerophosphate, 5 Na4P2O7 pyrophosphate, 1 EDTA, pH 7.5 and protease inhibitors (complete, Roche), aprotinin (Sigma). Cell lysates were prepared by passing the eggs through a 27 G1/2 needle twice and by centrifugation at 3,600 rpm for 10 minutes at 4° C. Supernatants were transferred to new tubes and samples were spun at 14,000 rpm for 20 minutes at 4° C. […]

B1: SPLUNC1: human SPLUNC1, 256 amino acid secreted PLUNC protein (SEQ ID NO:1); rSPLUNC1 = V5/6His-tagged protein purified from HEK293 media (protein, listed as Homo sapiens)
chain: MFQTGGLIVFYGLLAQTMAQFGGLPVPLDQTLPLNVNPALPLSPTGLAGSLTNALSNGLLSGGLLGILENLPLLDILKPGGGTSGGLLGGLLGKVTSVIPGLNNIIDIKVTDPQLLELGLVQSPDGHRLYVTIPLGIKLQVNTPLVGASLLRLAVKLDITAEILAVRDKQERIHLVLGDCTHSPGSLQISLLDGLGPLPIQGLLDSLTGILNKVLPELVQGNVCPLVNEVLRGLDITLVHDIVNMLIHGLQFVIKV
modifications: V5/6His tag
notes: rSPLUNC1 = V5/6His-tagged protein purified from HEK293 media
As for B1, the “α and γ ENaC cleavage by CAP2” value was “only full-length α and γ ENaC subunits could be observed”.
